{"source": "patent US9987329B2", "about": "“Methods for treating peripheral nerve damage” (Cornell University, priority 2014, dated 2018)", "key": {"[1]": {"test_system": "corneal nerves of thy1-YFP mice", "test": "Corneal micropocket assay (VEGF-B releasing pellet)", "assay_type": "in vivo, mouse", "method": "A sucralfate/hydron pellet impregnated with VEGF-B (100 ng/pellet) or vehicle was implanted into a corneal micropocket in anesthetized thy1-YFP mice subjected to a partial lamellar incision parallel to the limbus. Rogers, M. S. et al., The mouse cornea micropocket angiogenesis assay, Nature protocols 2, 2545-2550 (2007). Mice were allowed to recover for a day, after which a subset received a corneal debridement that removed a circular 2-mm region of central epithelium and the underlying sub-basal nerves. The corneas were harvested 3 days later, fixed in 4% paraformaldehyde (PFA) for 30 minutes, mounted in Vectashield medium (Vector Labs H1000) as whole mounts, and nerves imaged using the AxioObserver system as described above.\nHarvested corneas from thy1-YFP mice were fixed in 4% PFA for 1 hr and then stained with 4,6-diamidino-2-phenylindole (DAPI) to label nuclei before mounting. The YFP fluorescent nerves were imaged with a fluorescence microscope at the site of pellet implantation and at a site 180 degrees opposite to the pellet. Images were analyzed using Neurolucida. […] wild type and Vegf-b^−/− mouse corneas were flat mounted and fixed as described. Pan, Z., Fukuoka et al., FASEB J. 27, 2756-2767 (2013). Samples were stained with rabbit anti-β3 tubulin antibody (Abcam 18207) overnight at 4° C., followed by alexaFluor568-conjugated goat anti-rabbit IgG (Life Technologies A11011) at room temperature for 1 hr and counter-stained with DAPI."}, "[2]": {"test_system": "corneal sensation of C57BL/6 and Vegf-b−/− mice", "test": "Corneal nerve sensation testing (von Frey Hairs)", "assay_type": "in vivo, mouse", "method": "The degree of recovered nerve sensation in the injured cornea was evaluated using calibrated von Frey Hairs (North Coast Medicals). In this method the center of the cornea of un-anesthetized mouse was touched with thin filaments of ascending stiffness (0.008 to 1.4 g) until the hairs buckled and a blink response was elicited. C57BL/6 wild type and Vegf-b^−/− mice subjected to corneal epithelial debridement and receiving subconjuntival injection of VEGF-B, as well as their respective controls, were evaluated to determine the minimal force (g) needed for a blink response. Eight mice were tested in each group in three individual experiments."}, "[3]": {"test_system": "corneal nerves of Thy-1-YFP mice", "test": "Corneal nerve regeneration with combinations of VEGF-A and VEGF-B", "assay_type": "in vivo, mouse", "details": "ligand administered separately, two weeks post-injury (FIG. 14)", "method": "Thy-1-YFP mice were subjected to cornea epithelium debridement to ablate the superficial nerve endings that innervate the cornea Immediately after injury, the mice were treated with different combinations of VEGF-A and VEGF-B. As shown, combinations of VEGF ligands induce greater nerve regeneration in vivo.\nThe observed effects were also recapitulated in vivo. Thy-1-YFP neurofluorescent mice were used to induce a corneal epithelium injury that results in ablation of the superficial nerve endings of the cornea. The mice were then treated with different combinations of VEGF-A and VEGF-B, and nerve regeneration was analyzed after two weeks post-injury."}, "cornea": {"test_system": "cornea", "details": "mouse, in vivo", "method": "(§1) Wild type C57BL/6 and Vegf-b^−/− mice were subject to corneal epithelial debridement as described above or left intact. A 5 ul volume containing 0.5 ng VEGF-B^186 in PBS was injected subconjunctivally, at the lateral temporal bulbar conjunctiva, using a 10-μl micro-syringe (Hamilton Co). Equal volume of 0.1% bovine serum albumin (BSA) was used in control mice. The recovery of the corneal epithelial injury was imaged at 24, 40 and 48 hours by applying 1% fluorescein solution to the corneal surface and wounds photographed under diffuse cobalt blue light attached to a slit lamp bio-microscope (Nikon FS-3, Nikon) connected to a digital camera (Canon EOS 60D). The corneal epithelial defect areas were quantified by analyzing the images with Photoshop CS4 (Adobe). Corneas were harvested after one week for immunodetection of nerves. Possible growth of blood vessel into the cornea was monitored by slit lamp examination."}, "[4]": {"test_system": "trigeminal ganglion (TG) neuronal cells", "test": "Trigeminal ganglion neuronal growth assay", "assay_type": "cell-based, mouse", "details": "VEGF-B on three consecutive days, culture day 6 (FIG. 11)"}, "[5]": {"test_system": "corneal epithelium of C57BL/6 and Vegf-b−/− mice", "test": "Corneal epithelial wound healing after debridement (fluorescein staining)", "assay_type": "in vivo, mouse", "details": "0.5 ng subconjunctival, 48 hours (FIG. 6A)", "method": "as §1"}, "[6]": {"test_system": "trigeminal ganglion (TG) neuronal cells", "test": "Trigeminal ganglion neuronal growth assay", "assay_type": "cell-based, mouse", "method": "Trigeminal ganglion (TG) neuronal cells were obtained and cultured as described previously. Pan, Z., Fukuoka et al., FASEB J. 27, 2756-2767 (2013). To evaluate the effect of VEGF-B on neuronal growth, TG neuronal cells were treated with 10-100 ng/ml recombinant mouse VEGF-B^186 (R&D 767-VE-010). The VEGF-B treatments were replenished every other day. Neurite formation and growth was followed up to 3 days. […] VEGF receptors were inhibited by using neutralizing antibodies against VEGFR1 (R&D AF471), VEGFR2 (R&D MAB4431) and Neuropilin 1 (NRP1) (R&D MAB566). TG cells were incubated in a dose dependent manner with anti-VEGFR1, anti-VEGFR2 or anti-NRP1 for 1 hour prior to the addition of 50 ng/ml VEGF-B. The tyrosine kinase domains of VEGFR2 were inhibited with specific inhibitors by incubating TG neuronal cells with 10 μM SU 1498 (Sigma T4192) or 5 nM Ki 8751 (Sigma K1265) for 1 hr before adding 50 ng/ml VEGF-B. All neurite growth was imaged with an AxioObserver Z1 fluorescence microscope in the YFP channel attached to an AxioCam HRm digital camera (Zeiss) operated by AxioVision 4.0 software. Images were analyzed using Neurolucida 9 (MBF Bioscience) a quantitative nerve tracing software."}, "[7]": {"details": "50 ng/ml each, three days in culture (FIG. 2B)"}, "[8]": {"details": "50 ng/ml, three days in culture (FIG. 2B)"}}, "data": [{"molecule": "recombinant mouse VEGF-B^186 (protein, listed as Homo sapiens, vascular endothelial growth factor B; recombinant mouse VEGF-B186 (R&D 767-VE-010)) MSPLLRRLLLAALLQLAPAQAPVSQPDAPGHQRKVVSWIDVYTRATCQPREVVVPLTVELMGTVAKQLVPSCVTVQRCGGCCPDDGLECVPTGQHQVRMQILMIRYPSSQLGEMSLEEHSQCECRPKKKDSAVKPDRAATPHHRPQPRSVPGWDSAPGAPSPADITHPTPAPGPSAHAAPSTTSALTPGPAAAAADAAASSVAKGGA", "values": [{"measurement": "innervation at sites of injury", "setting": "[1]; 100 ng/pellet plus superficial corneal debridement, versus vehicle, 3 days", "result": "significantly increased innervation throughout sites of injury"}, {"measurement": "corneal nerve density or patterning", "setting": "[1]; 100 ng/pellet, absence of injury, 3 days", "result": "no alteration of corneal nerve density or patterning"}, {"measurement": "nerve density at the site of pellet implantation", "setting": "[1]; 100 ng/pellet, limited (focal) injury, versus vehicle", "result": "significant increased nerve density"}, {"measurement": "corneal sensation compared with untreated Vegf-b−/− mice", "setting": "[2]; Vegf-b−/− mice, 2 weeks post-injury (FIG. 4F)", "result": "significantly improved sensation"}, {"measurement": "functional recovery of corneal sensation", "setting": "[2]; wild type and Vegf-b−/− mice, 7 days of treatment (FIG. 4E)", "result": "began to improve"}, {"measurement": "corneal sensation", "setting": "[2]; wild-type mice, 2 weeks post-injury (FIG. 4F)", "result": "completely restored"}, {"measurement": "nerve regeneration", "setting": "[3]", "result": "induced greater nerve regeneration"}, {"measurement": "neovascularization of the cornea", "setting": "cornea", "result": "did not produce any unwanted neovascularization"}, {"measurement": "dendrite length and branching", "setting": "[4]", "result": "longer dendrites and more branches"}, {"measurement": "injured epithelial area compared with untreated controls", "setting": "[5]; Vegf-b−/− mice", "result": "only half the injured area"}, {"measurement": "epithelial healing", "setting": "[5]; wild type mice", "result": "almost complete healing"}, {"measurement": "length of neurites compared with untreated controls", "setting": "[6]; 50 ng/ml VEGF-B, 3 days in culture (FIG. 1)", "result": "almost four folds greater"}, {"measurement": "neurite elongation compared with VEGF-A treatment", "setting": "[6]; [7]", "result": "more than 2 folds"}, {"measurement": "number of branching nodes compared with VEGF-A treated neurons", "setting": "[6]; [7]", "result": "more than 4 folds"}, {"measurement": "pattern of neurite growth (elongation and branching)", "setting": "[6]; 50 ng/ml, three days in culture (FIG. 2A)", "result": "extensive elongation and branching of the neurites"}, {"measurement": "neurite elongation compared with untreated control", "setting": "[6]; [8]", "result": "five folds higher"}, {"measurement": "number of branching nodes compared with untreated control", "setting": "[6]; [8]", "result": "seven fold higher"}, {"measurement": "dose dependence of neurite growth induction", "setting": "[6]; 10-100 ng/ml VEGF-B (FIG. 7)", "result": "dose-dependent"}, {"measurement": "most potent dose for inducing neurite elongation and branching", "setting": "[6]; increasing concentrations of VEGF-B, 3 days in culture (FIG. 7)", "result": 50, "unit": "ng/mL"}]}]}
